From publication PMC9867944 (Bioscience Reports, 2023) come the findings set out here.

For assay [1], the target named is T1, human PD-1 protein (Acro biosystems) (Homo sapiens (Human)., UniProt Q15116).
T1 construct: programmed death protein 1 (PD-1), human, recombinant protein; probably the extracellular domain; also called human PD-1 antigen; hPD-1; source: bought: Acro biosystems
Description: ELISA; Phage-ELISA; wells coated with human PD-1 protein; supernatant of the colonies added for 1 h; anti-M13/HRP (1:5000); positive if absorbance more than two times the negative control (PBS). Conditions: one partner purified.

The target in a further assay is T2, anti-PD-1 Nb C12-Fc (Bactrian camel).
T2 construct: VHH C12 selected from a naive Bactrian camel phage display library; Nb C12 fused to the human IgG1 Fc fragment in plasmid pCZN1; about 40 kDa on SDS-PAGE; also called anti-PD-1 Nb-Fc; PD-1 C12 Nb-Fc
Description: ELISA; plates coated with human PD-1 or mouse PD-1 protein at 2 ug/ml overnight; serial diluted anti-PD-1 Nb-Fc added, 37 C, 1 h; HRP-conjugated antihuman IgG. Particulars: both partners purified. (In general: In an ELISA, binding on a coated surface is turned into a signal by an enzyme label.)

T1 sequence (Q15116 25-170): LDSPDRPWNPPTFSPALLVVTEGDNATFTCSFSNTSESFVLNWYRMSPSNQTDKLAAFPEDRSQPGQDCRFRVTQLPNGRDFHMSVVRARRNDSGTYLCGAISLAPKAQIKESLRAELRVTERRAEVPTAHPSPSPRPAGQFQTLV

B1: anti-PD-1 Nb C11, displayed on phage (VHH)
VHH: QVQLQESGGAWCEPGGSLTLPCAVSGFAVDRDAVSWVRKAPGQGLQWVSTTTPDGTNYYGALAKDRFTVTRDTTRNTLQLQLTKLRIEDTAKYHCVQDYCSTGRCSLRTQGTQVTVSS
notes: VHH C11 selected from a naive Bactrian camel phage display library; Detected with anti-M13/HRP; C11 was never made as an Fc fusion (ligation to pCZN1 failed); also called C11 Nb; source: E. coli TG1, phage in the supernatant of the colonies
For the molecule B1, the binding result in assay [1] was “binds”.

B2: anti-PD-1 Nb C12, displayed on phage (VHH)
VHH: QVQLQELGETRCRHGGSLRLSCKVSGYTQRSYCLGWLRQAPGNEREAVAVLQHSGNFRHYADSVQGRFVISQDYTDNTVYLAMNNLKSEDAAMYYCAAVGLRVSQFNYWGQGTQVTVSS
notes: VHH C12 selected from a naive Bactrian camel phage display library; same VHH as in m1; Detected with anti-M13/HRP; also called C12 Nb; source: E. coli TG1, phage in the supernatant of the colonies
In the case of B2, in assay [1], the binding result is given as “binds”.

B3: mouse PD-1 protein (receptor, UniProt Q02242 25-288, looked up)
chain: LEVPNGPWRSLTFYPAWLTVSEGANATFTCSLSNWSEDLMLNWNRLSPSNQTEKQAAFCNGLSQPVQDARFQIIQLPNRHDFHMNILDTRRNDSGIYLCGAISLHPKAKIEESPGAELVVTERILETSTRYPSPSPKPEGRFQGM
notes: programmed death protein 1 (PD-1), mouse, protein coated on plates; also called mouse PD-1 antigen
As for B3, the binding result in the assay with anti-PD-1 Nb C12-Fc is on record as “no binding”.
